Results from US10398755B2, “Clusterin pharmaceuticals and treatment methods using the same” (UNIVERSITY OF SOUTHERN CALIFORNIA, priority 2009, dated 2019).

System: MMP-9
Assay: MMP inhibition assay (FRET peptide substrate), APMA-activated pro-MMP-9
Format: biochemical
Procedure: Pro-MMP-9 (A) or pro-MMP-2 (C) was incubated with PBS, CLU (50 μg/ml, or 0.63 μM), SB3-CT (2 μM), or BSA (50 μg/ml), and MMP FRET substrate peptides in the presence and absence of […] APMA at RT for 3 h. RFU, relative fluorescence unit, was obtained by considering the read out in PBS as 100%. Each reaction was performed in triplicate. Standard errors were depicted as a bar in each graph. Differences between values of PBS and CLU or SB-3CT reactions were statistically significant by Student t-test: *P=0.0004, **P=0.0001, +P=0.0003, and ++P=0.01. Gelatin zymography was performed with the samples pooled from each reaction set. Pro-MMPs, processed MMPs (MMP-9 or MMP-2), and C-terminal truncated, processed MMP-9 (MMP-9-ΔC) were indicated by arrows. (B) Dose-dependent inhibition of MMP-9 by CLU or SB-3CT was performed in the same condition. MMPs were mixed with CLD in TSCB buffer, 50 mM Tris-HCI, pH, 7.5, 150 mM NaCl, 5 mM CaCl2, 0.002% Brij35 (or otherwise indicated concentration) 30 min prior to substrate addition, and incubated for 3 h at RT in the presence or absence of 0.02 mM p-aminophenylmercuric acetate (APMA). MMP activity was measured using a 5-FAM/QXL520 fluorescence resonance energy transfer (FRET) peptide as a substrate (EXlEm=490 nm/520 nm) (AnaSpec, Fremont, Calif.), according to the manufacturer's protocol. Relative fluorescence unit (RFU) was obtained by subtracting the values of APMA- or enzyme-omitted reactions from those of test samples, and then considering the fluorescence unit of a PBS (vehicle) sample as 100%. Enzyme reactions were performed in black 96-well plate, containing combinations of 10 ng, 5 ng, 5 ng, 10 ng, 2.5 μg, 2.5 μg of MMP-2, MMP-7, catalytic domain of MMP-9, MMP-9, CCLU, and/or BSA, respectively, in 50 μl reaction volume. As MMP substrates (0.4 μM), 520 MMP FRET substrate […] (SEQ ID NO: 9), was used for MMP-2 and MMP-9, and 520 MMP FRET substrate XIV, […] (SEQ ID NO: 10), used for MMP-7 reactions, both of which were purchased from AnaSpec (Fremont, Calif.). Recombinant proteins such as mouse CLU with C-terminal (His)6 (CLU-His), MMP-2, and MMP-7 were purchased from R&D Systems (Minneapolis, Minn.), MMP-9 was purchase from Ana-Spec, Inc. (San Jose, Calif.). The recombinant catalytic domain of human MMP-9 (residue 112-445) was purchased from ProtEra (Sesto Fiorentino, Italy). A gelatinase-specific synthetic inhibitor, SB-3CT, was obtained from Biomol International (Plymouth Meeting, Pa.). Fluorescence was monitored using a Victor^3TM V multilabel counter (PerkinElmer). For the gelatin digestion, a 50 μl mixture of gelatin (20 μg) and CLU (2 μg) was incubated with or without active MMP-9 (70 ng) for 2 hours at 37° C. The reaction products were run on a 12% denaturing SDS/PAGE gel for Coomasie staining. […] To determine whether MMP-9/CLU interaction affects the cleavage process of the propeptide of MMP-9 and/or interferes with enzymatic activity of the processed active enzyme, we performed an in vitro MMP-9 inhibition assay, by adopting FRET assay using a fluorescence-quenched peptide substrate (FIG. 3A). […] We incubated pro-MMP-9 with PBS, CLU, SB-3CT, or BSA, and a fluorescence peptide substrate in the presence or absence of APMA. […] We monitored the change in fluorescence value during the incubation of the reactions up to 3 h, which reflects the enzymatic activity of APMA-activated MMPs. […] At 3 h post incubation, the activity difference was read and reaction products were resolved by gelatin zymography. […]

B1: CLU: secreted disulfide-linked heterodimeric glycoprotein (70-80 KD); assays used recombinant mouse CLU with C-terminal (His)6 (protein, UniProt Q06890 22-448, looked up)
Clusterin: EQEVSDNELQELSTQGSRYINKEIQNAVQGVKHIKTLIEKTNAERKSLLNSLEEAKKKKEDALEDTRDSEMKLKAFPEVCNETMMALWEECKPCLKHTCMKFYARVCRSGSGLVGQQLEEFLNQSSPFYFWMNGDRIDSLLESDRQQSQVLDAMQDSFARASGIIDTLFQDRFFARELHDPHYFSPIGFPHKRPHFLYPKSRLVRSLMSPSHYGPPSFHNMFQPFFEMIHQAQQAMDVQLHSPAFQFPDVDFLREGEDDRTVCKEIRRNSTGCLKMKGQCEKCQEILSVDCSTNNPAQANLRQELNDSLQVAERLTEQYKELLQSFQSKMLNTSSLLEQLNDQFNWVSQLANLTQGEDKYYLRVSTVTTHSSDSEVPSRVTEVVVKLFDSDPITVVLPEEVSKDNPKFMDTVAEKALQEYRRKSRAE
modifications: C-terminal His6 tag
B1 was tested, and the “average inhibition of MMP-9, three independent experiments in triplicate” value (50 μg/ml of CLU, p=0.002) was 35%, the “effect on APMA-induced processing of pro-MMP-9 (zymography)” value (APMA-treated reactions) was “did not affect the enzyme processing by APMA” and the “inhibition of the activity of MMP-9” value (CLU 50 μg/ml (0.63 μM), APMA, RT 3 h, 0.002% Brij 35, compared with PBS and BSA) was 28%. For the same molecule, the “dose-dependent inhibition of MMP-9, comparison with SB-3CT” value (FIG. 3B) was “stronger MMP-9 inhibitor than a synthetic gelatinase inhibitor, SB-3CT” and the “MMP-9 inhibition at high detergent concentration” value (pro-MMP-9 or APMA-activated MMP-9, 0.04% Brij 35 or NP-40) was “little MMP-9 inhibition”.
